Results from article PMC4403255 (Genes & Development, 2015).

T1: DR6-Fc fusion (UniProt Q9EPU5 42-349)
T1 sequence (looked up): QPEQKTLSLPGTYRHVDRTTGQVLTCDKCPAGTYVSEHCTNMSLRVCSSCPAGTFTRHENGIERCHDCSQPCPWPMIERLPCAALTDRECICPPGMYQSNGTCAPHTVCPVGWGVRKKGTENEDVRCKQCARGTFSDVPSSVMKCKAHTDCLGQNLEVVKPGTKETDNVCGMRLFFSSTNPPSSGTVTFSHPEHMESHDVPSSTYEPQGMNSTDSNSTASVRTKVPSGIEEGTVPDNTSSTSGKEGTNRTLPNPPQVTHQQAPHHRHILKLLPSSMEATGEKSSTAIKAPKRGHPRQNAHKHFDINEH


How the values were obtained:
[1] = target: Full extracellular domain of mouse amyloid precursor protein (mouse) (UniProt P12023); experiment: SEC
DR6-Fc fusion = target: T1, DR6-Fc fusion; experiment: BLI

Row | stoichiometry N [1] | Kd (DR6-Fc fusion) | Molecule
1 | 2 | – | Full extracellular domain of mouse amyloid precursor protein (from UniProt P12023-2 18-596) (domain or fragment)
2 | – | 85 nM | AP-APP-E2 (amino acids 287-506), wild type (domain or fragment, UniProt P12023-2 287-506, looked up) VRVPTTAASTPDAVDKYLETPGDENEHAHFQKAKERLEAKHRERMSQVMREWEEAERQAKNLPKADKKAVIQHFQEKVESLEQEAANERQQLVETHMARVEAMLNDRRRLALENYITALQAVPPRPHHVFNMLKKYVRAEQKDRQHTLKHFEHVRMVDPKKAAQIRSQVMTHLRVIYERMNQSLSLLYNVPAVAEEIQDEVDELLQKEQNYSDDVLANMI
